Source: patent US20110217317A1 (published 2011)

T1: Rhesus D antigen (human, UniProt Q02161 2-417)
T1 construct: whole, on cells; Presented on RhD-positive erythrocytes in all assays; also called RhD; RhD antigen
T1 sequence (looked up): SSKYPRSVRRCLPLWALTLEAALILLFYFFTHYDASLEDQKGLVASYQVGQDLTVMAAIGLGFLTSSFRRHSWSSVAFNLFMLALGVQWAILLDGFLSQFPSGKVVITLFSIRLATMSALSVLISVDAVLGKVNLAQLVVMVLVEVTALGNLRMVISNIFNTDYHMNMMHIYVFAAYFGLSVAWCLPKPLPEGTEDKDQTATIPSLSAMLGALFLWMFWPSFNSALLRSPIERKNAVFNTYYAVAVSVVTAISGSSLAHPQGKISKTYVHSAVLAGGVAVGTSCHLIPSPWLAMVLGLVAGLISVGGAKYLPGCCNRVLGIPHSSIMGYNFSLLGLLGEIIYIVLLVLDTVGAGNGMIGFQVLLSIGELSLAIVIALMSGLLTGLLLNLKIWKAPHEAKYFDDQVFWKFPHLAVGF

B1: RhD296.126A03 (Fab, V domains shown)
VH: EVQLVESGGGVVQPGRSLRLSCEASGFTFSNYGMHWFRQAPGKGLEWVAIIWYDGSNKHYADSVKGRFTISRDNSKNTLYLQMNSLRAEDTAVYFCAREIASRGYSRYLYYFDSWGQGTLVTVSS
VL: DIQMTQSPSSLSASVGDRVTITCRASQSISSYLNWYQQKPGKAPKLLIFAASSLQSGVPSRFSGSGSGTDFSLTISSLQPEDFATYYCQQSYSSLALTFGGGTKVEIKR
notes: Tested as Fab (periplasmic extract)
B2: RhD160.119C07 (Fab, V domains shown)
VH: EVQLVESGGGVVQPGRSLRLSCAASGFTFSNYGMHWVRQAPGKGLEWVAVIWYDGSNRFYADSVKGRFTISRDNSKNTLYLQMNNLRAEDTALYSCAREITTTVVVRRHYLMDIWGQGTTVTVSS
VL: DIQLTQSPSSLSASVGDRVSITCRASQGISNSLAWYQQKPGKVPKLLIYAASTLQSGVPSRFSGGGSGTDFTLTISSLQPEDVATYYCQKYNSAPFAFGPGTKVDIKR
notes: as for B1
B3: RhD161.119E09 (Fab, V domains shown)
VH: EVQLVESGGGVVQSGRSLRLSCAASGFTFSNNGMHWVRQAPGKGLEWVAFIWYDGSNKYYADSVKGRFTISRDNSKNTLYLQMDGLRAEDSAVYYCAREEIAARLYSRYHYAMDVWGQGTMVTVSS
VL: DIQMTQSPSFLSASVGDRVTITCRASQGIRRYLAWFQQKPGKAPKLLIFSASTLQSGVPSRFSGSGSGTEFTLTISSLQPEDFATYYCQQLSSYPPYTFGQGTKLEIKR
notes: as for B1
B4: RhD306.223E11 (Fab, V domains shown)
VH: QVQLVESGGGVVQPGRSLRLSCAASGFTFSSYGMHWVRQAPGKGLEWVAVIWYDGSNKYYADSVKGRFTISRDNSKNTLYLQMNTLRDDDTAVYYCAREGTLYSSSWYRRYYYYGMDAWGQGTTVTVSS
VL: EIVLTQSPGTLSLSPGERVTLSCRPSRYIASDYLAWYQLRPGQAPKLLIYGASSRATGIPDRFSGVGSPTDFTLTISRLEPEDFAMYYCHYSGGSPPYPFGQGTRLDIKR
notes: as for B1
B5: RhD300.134H09 (Fab, V domains shown)
VH: QVQLVESGGGVVQPGRSLRLSCAASGFTFSSYGMHWVRQAPGKGLEWVAVIWYDGSNKYYADSVKGRFTISRDNSKNTLYLQMNSLRAEDTAVYYCAREFYTRSGLWSQGYSYYMDVWGKGTTVTVSS
VL: QTVVTQEPSFSVSPGGTVTLTCGLSSGSVSARYYPSWYQQTPGQPPRTLIHSTNTRSSGVPDRFSGSILGNKAALTITGAQADDESDYYCVLYMGSGPWVFGGGTKLTVLG
notes: as for B1
B6: RhD302.160B10 (Fab, V domains shown)
VH: QVQLVESGGGVVQPGRSLRLSCAASGFTFSSYGMHWVRQAPGKGLEWVAFISYDGSNKYYADSVKGRFTISRDNSKNTLSLQMNSLRAEDTAVYYCAKEHGYYRSSWYRNYYYYGMDVWGQGTTVTVSS
VL: DIQLTQSPSSLSASVGDRVTITCRASQSISSYLNWYKQRPGKAPKLLIYAASTLQSGVPSRFSGSGSGTDFALTISSLQAEDFATYYCQQTYSTLWTFGQGTKVEITR
notes: as for B1
B7: RhD303.160B11 (Fab, V domains shown)
VH: QVQLVESGGGVVQPERSLRLSCAASGFTFSSYGMHWVRQAPGKGLEWVAVISYDGSNKYYADSVKGRFTISRDNSKNTLYLQMNSLRAEDTAVYYCAKDEVGYSSSWYRRYYYYAMDVWGQGTTVTVSS
VL: EIVLTQSPGTLSLSPGETATLSCRASQSVSDRDLAWYQQKSGQSPRLLMYGGSTRAPGIPVRFSGSGSGTEFTLTISSLQSEDFAIYYCQHYHDWPPTFGQGTRLEIKR
notes: as for B1
B8: RhD321.187G08 (Fab, V domains shown)
VH: EVQLVESGGGLVKPGGSLRLSCAASGFTFRSYSMNWVRQAPGKGLEWVSSIGSSSIYTYSADSVKGRFTISRDNAKNSLYLQMNSLRAEDTAVYYCARGEPLNYDYIWGRSRLTIHWGQGTLVTVSS
VL: LNFMLTQPHSVSESPGKTVTISCTRSSGSIASNYMQWYQQRPGSSPTTVIYEDNRRPSGVPDRFSGSIDSSSNSASLTISGLKTEDEADYYCQSYDSNNWVFGGGTKLTVLG
notes: as for B1
B9: RhD317.144A02 (Fab, V domains shown)
VH: QVQLQESGPGLVKPSGTLSLTCAVSGGSIRGSNWWSWVRQPPGKGLEWIGEIHHGGSTNYNPSLKSRVTISVDKSKNRFSLKLSSVTAADTAVYYCARGTSYYDSSGYSFRGLVAFDIWGQGTMVTVSS
VL: EIVLTQSPGTLSLSPGERATLSCRASQSVSSAFLAWYQQKPGQAPRLLIYGASSRATGIPDRFSGSGSGTDFTLTISRLEPEDFAVYYCQQYGSFSITFGQGTRLEIKR
notes: as for B1
B10: RhD304.164B06 (Fab, V domains shown)
VH: QVQLVQSGGGVVQPGRSLRLSCAASGFTFSSYGMHWVRQAPGKGLEWVAVIWYDGSNKYYADSVKGRFTISRDNSKNTLYLQMNSLRAEDTAVYYCARETVVVAAKIRNHYYYAMDVWGQGTTVTVSS
VL: DIQMTQSPSSLSASLGGTVTLTCRSSQFISRYLNWYQQHPGKVPRLLISGASRLQRGVPSRFTGGGSGTDFTLTIKNVQPDDIATYFCQHSYRSGRAFGQGTTVEVKR
notes: as for B1
B11: RhD305.181E06 (Fab, V domains shown)
VH: QVQLVESGGGVVQPGRSLRLSCAASGFTFSSYGMHWVRQAPGKGLEWVAGIWYDGSNKYYADSVKGRFTISRDNSRNTMYLQMNSLRAEDTAVYYCAREQGGYSSSWYRRYYYYNMDLWGQGTTVTVSS
VL: EIVLTQSPGSLSLSPGERATLSCRASQSVSSSYLAWYQQKPGQAPRLLIYGPSSRATGIPDRFSGSGSGTDFTLTISRLEPEDFAVYYCQHFGNSRGTFGQGTKVEIRR
notes: as for B1
B12: RhD307.230E11 (Fab, V domains shown)
VH: QVQLVETGGGVVQPGRSLRLSCAASGFTFSSYGMHWVRQAPGKGLEWVAGIWYDGSNKYYGDSVKGRFTISRDNSRNTLYLHMNSLRADDTAVYYCAREHGGSRSGWYTLRLAYYFDYWGQGTLVTVSS
VL: DIQLTQSPSSLSASVGDRVTITCRASQYINVYLNWYQHKAGRAPKLLIYAASNLQSGVPPRFIGSGSGTDFTLTISSLQSEDFATYYCLQSFTVPRTFGPGTKVDVKR
notes: as for B1
B13: RhD299.127A12 (Fab, V domains shown)
VH: QVQLVESGGGVVQPGRSLRLSCAASGFTFSNFGMHWVRQAPGKGLEWVAVIWYDGSNKDYADSVKGRFTISRDNSKRTLYLQMNSLRAEDTAVYYCARELARGRLRDLDYWGQGTLVTVSS
VL: QAVVTQEPSLTVSPGGTVTLTCASSTGAVTTGYYPNWFQQKPGQAPRALIYSTSKKHSWTPARFSGSLLGGKAALTLSGVQPEDEAEYYCLLFYGGAQLGVFGGGTKLTVLG
notes: as for B1
B14: RhD319.187A11 (Fab, V domains shown)
VH: QVQLVESGGGVVQPGRSLRLSCAASGFTFSTYGMHWVRQAPGKGLEWVAVIWYDGSNKNYADSVKGRFTISRDNSKNTLYLQMNSLRAEDTAVYYCARDLQGYRSSWYRMYYYYGMDVWGQGTTVTVSS
VL: QTVVTQEPSLTVSPGGTVTLTCASSTGAVTSGYYPNWFQQKPGQAPRALIYSTSNKHSWTPARFSGSLLGGKAALTLSGVQPEDEAEYYCLLYYGGAQRWVFGGGTILTVLG
notes: as for B1
B15: RhD301.160A04 (Fab, V domains shown)
VH: QVQLVESGGGVVQPGRSLRLSCAASGFTFSSYGMHWVRQAPGKGLEWVAVIWFDGGNKYYADSAKGRFTISRDNSKNTLYLQMNSLRAEDTAVYYCARDASVLSGLVTRRLVYYGMDVWGQGTTVTVSS
VL: DVVMTQSPLSLPVTPGEPASISCRSSQSLLHRNGYNYLNWYLQKPGQSPQLLIYLGSNRASGVPDRFSGSGSGTDFTLKISGVEAEDVAFYYCMQGLRTPYTFGQGTKLEIKR
notes: as for B1

target: T1, Rhesus D antigen; assay: agglutination assay, Fab on RhD(+)/RhD(-) RBC mix
Experimental: After each round of panning single colonies were picked for analysis of their binding properties to red blood cells in agglutination assays. Briefly, single colonies were inoculated into 2×YT/100 μg/mL carbenicillin/1% glucose and shaken overnight at 37° C. The next day, DeepWell plates were inoculated using 900 μl 2×YT/100 μg/mL carbenicillin/0.1% glucose and 10 μl overnight culture. The plates were shaken for two hours at 37° C., before Fab induction was performed with addition of 300 μl 2×YT/100 μg/mL carbenicillin/0.25 mM IPTG per well. The plate was shaken overnight at 30° C. The following day, the bacteria were pelleted by centrifugation (3200×g, 4° C., 10 minutes), and re-suspended in 100 μl of 0.8 M NaCl, 0.2×PBS, 8 mM EDTA, and incubated for 15 minutes on ice in order to perform a periplasmic extraction of the Fab fragments. The plate was transferred to −20° C. and finally the suspension was thawed and centrifugation was performed for 10 minutes at 4° C. and 3200×g. The periplasmic extract was used in ELISA assays for analysis of Fab content and in agglutination assays to evaluate the binding potential of the individual Fab fragments. The agglutination assay was performed as follows: RhD(−) and RhD(+) RBC were mixed in a 1:1 ratio, and washed 3 times in PBS. After the final wash, the cell mix was re-suspended in 1% BSA in PBS at a density of 1% cells, 50 μl was added to each well of a 96-plate. Periplasmic extracts were added to the wells. As a positive control Rhesogamma P immunoglobulin (Aventis) was used according to the manufacturer's instructions. The plates were incubated for one hour at room temperature with gentle shaking. The cells were washed three times with PBS, before the secondary antibody was added (goat anti-human Fab/FITC conjugate, Sigma F5512) in a 1:100 dilution. The plates were left for agglutination for one hour at room temperature without shaking. Fab fragments positive in the agglutination assay was determined by visual inspection, and recorded by taking a picture. Quantization of the binding activity of the Fab fragments was performed by FACS analysis of the agglutination samples.

Binding result, binds:
B1, B2, B3

target: T1, Rhesus D antigen; assay: Fab screening on red blood cells (agglutination/FACS)

Binding result, binds:
B4, B5, B6, B7, B8, B9, B10, B11, B12, B13, B14, B15
